Source: the DeepSol protein solubility set

Test: soluble on expression in E. coli; label from the status in PepcDB or PDB records

| Sequence | soluble on expression in E. coli |
| --- | --- |
| MSDSASGYEYVYYDRQVGAVQKSPNLMNDPKGALFYTLDSVFGDPGDTTGWILYNDEMPADANRSNNATLGHTKGVIAFDIASSSALWLLHSWPKYASPSVPGVPTPLYGQTFLCLSLDLATAGKLAAQMALHQQPQVYLPRTGGLDHTSPLYALTQPLNASAPGDSDSLDFKTRGGVPFKVIAKNRKWGKDFWNDLVGPTLKADMYVETWIRGKIPPVLDSDGVHKTYDIKFIDLRKLGAPWAWPETQDHAKWGITTTDNWVCVGDINRMVTQEKRGGGTIAFQDPKLWKALCETDLIIPPPGKTDAQARAMIRKTHEPAELEHHHHHH | not soluble |
| MFPLNFHYEDVLRQDLLLKLNYANVMEVPGLCEIRVVPKAPYNFIIKNGKLAMEIPCGQKFIQTQRGSTGKSFRSNPFLGSNKDKGYVSDLARQSTLRGHGMSNFLVRILTVMSLLDFPVEIRKNSIQFSMETEFCEFSPELEDHFEIFEHIRGFNVTIITSANTQDETLLLWSGFLQKDEGETQLEHHHHHH | not soluble |
| STQFINKLYASYLREKAYLTAQKHWEKDEIDEQSYQIIQRKYDELLPEAHEILLNMDSLSEVRDTLNKYLTQHQQALLIAGEDSVPFSFKYKDQLGAALYYPDNEGNFIVLVMSRNVYGAEIKE | not soluble |
| MKDYRYALPAMMSVRKGESRYFNRGDQHLMNEILARVRAEGKIRLRDIDKKNKESLGNWWNTGPGRRAFEQLYMQGDLMICERNGMEKVYDLTERCLPENIDLSLPTLYEYAQYLFNNTLRAHGAFTWKQLVHLKKNDLKETMRVVLKEQIDAGVVSAIKLADGQNLYVDVTAIEQQLDTDFGLKILSPFDNSLIHRDRLTSLFEFDYRIECYLPAAKRVFGYFCLPILYQNELVGRIDCKAHRTVKELEVISLHLEKTVKDKEHFFFELDQELKRFAAFNQCSTVNDKVVKLIRSKLLEHHHHHH | not soluble |
| MITLPQLITTDTDMTAGLTSGKTTGSAEDFLALLAGALGADGAQGKDARITLADLQAAGGKLSKELLTQHGEPGQAVKLADLLAQKANATDETLTDLTQAQHLLSTLTPSLKTSALAALSKTAQHDEKTPALSDEDLASLSALFAMLPGQPVATPVAGETPAENHIALPSLLRGDMPSAPQEETHTLSFSEHEKGKTEASLARASDDRATGPALTPLVVAAAATSAKVEVDSPPAPVTHGAAMPTLSSATAQPLPVASAPVLSAPLGSHEWQQTFSQQVMLFTRQGQQSAQLRLHPEELGQVHISLKLDDNQAQLQMVSPHSHVRAALEAALPMLRTQLAESGIQLGQSSISSESFAGQQQSSSQQQSSRAQHTDAFGAEDDIALAAPASLQAAARGNGAVDIFA | not soluble |
| AITGATGHLGQQIVAAMRPLVATTELYLGVHTLSKAQVYQQQGLHIAAIDYQQPEQLRAFFQDSDVLIYIPSKSHDSYSRVQEFENVLAAVQQANVHHFLVMGFIADQVNNPFALSAFYGYVPRRLAGSDINYTIVRNALYADPLVPYLPELIERHNVVYPMADQALSFISQADSAAAFAKVATTPDLLQRGRI | not soluble |
| MGSDKIHHHHHHMKYEKIAFFRFFGRLNDFFRNSERIKTHRFTGFQTVKDRIEALGVPHVEVSLITLNGKPVGFDHMVEDGELFFVYPEFQNIEIPEDWLVTPRYIGEPRFVLDIHLGKLARLLRMLGFEAVFGEESDEKLCWMAVKKKAILLSRDTGLLKRKELVFGYYVRNTDPKEQLVEVVERYDLKKWMKPFTRCIECGVELEEVPKEAVKNRVPPKVYGFFNEFARCPVCGRIYWKGSHYDHMVEFIKSNINKG | not soluble |
| MGSDKIHHHHHHMDTAGMISAVQEILANRSLDGWEITAASSHILSIEVKEQKVDTFKCSAPLGVSVRVLKNGGMGFSFSTSMAPEDLARMVDNALVGAESQTPDADHGFPDPPAVYPDVPGLFDDGLAAVAEEAKIAVALDLERLTLAADPRVRKVRKATYGDSMVETMVVNSRGVSCRYRGTSVSASVTAVAEENGQSQMGWDFDFSSRFDGISVERIVAGAVAKATGLLGAATVPTMRCPAVLDTYVATEILEVLAPAFLAESVQKGKSLLAGKRGEMIVAPLLTIRDDGTLPGGMGTAPFDAEGVPKRNTVLVQNGRLDSYLYDTLRARKEGVAPTGNAIRSGIKSPPHMGVSNLFIENGTEAPEALLAGITRGVLLTEVMGMHTANTISGDFSVGAAGFLVEDGRVTRPVKGIAIAGNILELFRGVEAVGNDLRFYGTVGSPSLRIAALDVSGE | not soluble |
| MGSDKIHHHHHHMSLFHLIAPSGYCIKQHAALRGIQRLTDAGHQVNNVEVIARRCERFAGTETERLEDLNSLARLTTPNTIVLAVRGGYGASRLLADIDWQALVARQQHDPLLICGHSDFTAIQCGLLAHGNVITFSGPMLVANFGADELNAFTEHHFWLALRNETFTIEWQGEGPTCRAEGTLWGGNLAMLISLIGTPWMPKIENGILVLEDINEHPFRVERMLLQLYHAGILPRQKAIILGSFSGSTPNDYDAGYNLESVYAFLRSRLSIPLITGLDFGHEQRTVTLPLGAHAILNNTREGTQLTISGHPVLKM | not soluble |
| MATKNEELPIIDLAATEGYIVDDTDEDDPVLLAPDGTPIDTWRENYPYEERMTRDEYEKTKRALQIELLKWQNWTKDTGQRHIILFEGRDAAGKGGTIKRFNEHLNPRGARTVALEKPSPRESTSWYFQRYIEHFPCAGEIVFFDRSWYNRSGVERVMGFCTESQHAEFLREVPMLENMILGSGISLTKFWFSVTQKEQRTRFAIRQVDPVRQWKLSPMDLASLDRWDDYTRAKEEQFRYTDTDEAPWITIRSNDKKRARINAMRYILSKFEYSNKDHDLVGEPDPLIVMRGRDRIGD | not soluble |
| MHHKAKVIGMLKETIRSGDWKGEKHVPVIEYEREGDLVKVEVSVGKEIPHPNTPEHHIAWIELYFHPEGGQFPILVGRVEFTNHSDPLTEPRAVFFFKTSKKGKLYALSYCNIHGLWENEVQLE | soluble |
| MPVDRGAVRDAAKYLRGVRPLDPAALREYVPGQPHEAVVRQVLREQAADLGIIERADGTFVVPPEEPVGPPFNGVSALPERYERVVEAELTAAYGPDWHRGDTGDSLRETIRRFKDDYYRRNPVEYDREVALGYAVYHLAGYYAAVQYVLAGLARDGLLGHDLRVLDLGAGVGGPAVGLFDFLPDEALVEYHAVEPSAAADVLDALLAETPRNVHTTIHRETAESFQPAGEYDLVLACSVLSELDDAASVLRKYADAMAADGTALALAPADKHTSTHLRAVERAVEDDPFTVYGPTPRLWPDRRPTDSGWSFDERPAVEVPAVQSRLADASQDPGEFRHTDVRFSYSLLRRDDRRRHAVELSGDRLLALGDADDRVTDRADLLVAKLSRNLAGADANPVFRVSDGSQTTDCYAVLVRPTSLNGGIEAADYGDLVSIEDALVLWNDDEDAYNLVVDEETVVDAV | not soluble |
| MSLGLNILKTLRSHRVSEGVSNSDTHYELTSALIKSLRGSDIDASIYYLARLIQGGEEPAFLARRMVIFASEDIGNANPNALNLATNVMLAVSKIGYPEARIILAQCAVYLASSPKSNSSYKAINDAIEFVENRPALPVPKYLINTDKAKSEYLYPHDFGGWVEQKYMSTQVKFYKSNAIGFEKTLDEWITKLKESYNEKEGHHHHHH | soluble |
| MAQPSTTYKFELNLTDLDRNVYESVKQTIARHPSETEERMAVRLLAYALWYNENLSFGRGLSDVDEPALWEKSLDDRVLHWIEVGQPDADRLTWCSRRTERTSLLAYGSLRVWEGKVVSAVKNLKNLSIAAVPQEVLETLATDMPRSIKWDVMISEGTVFVTDDRGQHEVQLQWLLGERG | not soluble |
| MAEPKSFNIPYRSKLTERIEPGQTLIIRGKTIDESKRFNINLHKDSPDFSGNDVPLHLSIRFDEGKIVYNAYTKGTWGKEERAKNPIKKGDDFDIRIRAHDSKFQVSINHKEVKNFEHRIPLNSVSHLSIDGDVVLNHVQWGGKYYPVPYESGIAADGLVPGKTLVVYGTPEKKAKKFNINLLKKNGDIALHFNPRFDEKANGFMCAKPTPGSVVRNSLVNGEWGNEEREGKNPFERLTAFDLEIRNEEFAFQIFVNGERFASYAHRVDPHDIAGLQIQGDIELTGIQVVNNQPAQE | not soluble |
| MSLKTHKKVKIPILLKIAKLPKSSFYEWKHKLENTIDKDKELKEMIVDIFSKSFETYGYRRLKMALKSKGYIVNHKKILRLTKELGVQCIKFRTKNGRYSSYKGTVGKIADNVLKRNFHSLQANKLWCTDVTEFKVNGQKLYLSPIIDLYNDEIISYSIQTNPNLNLTNSMLDKALKKVKNTNGFLIHSDQGFHYQHISWAKKLEENNITQSMSRKGNCLDNAIIENFFGLLKQEIYYGEKYNSVEELTKRIHKYIYWYNNIRIKEKLKGLSPVQFRKQSCYNIEGHHHHHH | not soluble |
| MAARKLIARINPTNSALFVCDLQEKFASNIKYFPEIITTSRRLIDAARILSIPTIVTEQYPKGLGHTVPTLKEGLAENTPIFDKTKFSMCIPPTEDTLKKVQNVILVGIEAHVCVLQTTYDLLERGLNVHVVVDAVSSRSHTDRHFAFKQMEQAGAILTTSEATILGLVGGSDHPKFKEVQKLILTSAPDTGLVPLSKL | soluble |
| MSLREIVWVHSQRIAPYKTLILNELRYYPLELDPTPFNALVFTSKNAVFSLLETLNNSPKLKTLQNIPAYALSEPTAKTLQDHHFKVAFIGKKAHGKEFAQEILPLLKGKSVLYLRAKEIASSLDTILLEHGIDFKQAVVYENKLKHLTLSEQNALKPKEKSVLIFTAISHAKAFLHYFEFLENYTAISIGNTTALYLQEQGIPSYIAKKPSLEACLELALNLKSEGHHHHHH | soluble |
| MTDIPHDHPRYESLLAREKVAAGVKMGITSIQGLIAQGRGESFDYLIGERSTESALYAERAAVAALLLAENPVISVNGNVAALAPDKVVTLADITGARIEVNLFHRTDTRVHLIIEQLKASGAAEVLGKNPDASLELSHDRRLVSSKGIYTADVVLVPLEDGDRCEKLVEMGKTVITIDLNPLSRTSKTATISIVDNLTRALGNMAKFAQEMKKERKEELVKLITTYDNKRTLSEAISEIQEHLKTMAAETGLEHHHHHH | soluble |
| MHLRTYYPTVVLSDIHLGTQHSKTEEVTHFLKSINCDRLILNGDIIDGWHLQKSGLGKWKAKHTDFFKVIMKMMENFGTQVIYVRGNHDDFLDNLAPLNFYNIRIVKDCIYESHGRRYYVTHGDIFDTVTTQMKWLAKLGDTGYTFLLWLNKVYNLRRMKQGKPYYSLSQSIKNRVKTAVSYISDFEKELVGLARAKKCDGVICGHIHHPANTFYEDIHYLNSGDWVETLSALTEDEDGNWTIRYFDSGLLKEDNHKEKQTISITIAS | not soluble |
| MGSDKIHHHHHHMKLISVRRIWEQAAHNAFTDLIAFQEALFCVFREGTAHVSPDGALRILRSVDGGETWQSVALIRSDEADLRDGKLIEYQGELLLLGGGTLHNKSGLQSHLWRSADGRVWSDALKIADKGYWLWRLTEHQNTLYGVGYRPGPDGDTRLYKSEDGVQFKTWLKVFNNQGYVNETAIVFDQDSGFCLLRRDPVWGPEFFGLLGHSRAPFTDWQWQELDKRIGGPVMLMYQSRLLAVVRLYDEQVRTALVEIHSDTGVVQELLTLPSKGDTSYAGVVIDGNELWVSYYSSHELADSQLDTQNSLDESSRAGKAKTMIYFAKILLS | not soluble |
| MRYEALRLLCFFDLPMESKDEKRIYRNFRKELISNGFEMLQFSVYYRTCPNRSFANKFYKKLKMSNLPAGNVRLLAVTEKQFSEMTLIIGGKTKQEEIVSDNKLVIILEHHHHHH | soluble |
| GSHMARYDSLLQALGNTPLVGLQRLSPRWDDGRDGPHVRLWAKLEDRNPTGSIKDRPAVRMIEQAEADGLLRPGATILEPTSGNTGISLAMAARLKGYRLICVMPENTSVERRQLLELYGAQIIFSAAEGGSNTAVATAKELAATNPSWVMLYQYGNPANTDSHYCGTGPELLADLPEITHFVAGLGTTGTLMGTGRFLREHVANVKIVAAEPRYGEGVYALRNMDEGFVPELYDPEILTARYSVGAVDAVRRTRELVHTEGIFAGISTGAVLHAALGVGAGALAAGERADIALVVADAGWKYLSTGAYAGSLDDAETALEGQLWA | soluble |
